Patent US20230203155A1 (ALMAC DISCOVERY, published 2023)
Substitutions are numbered along the chain they refer to.

T1: P3A1 his myc
T1 construct: VNAR; also called P3A1 6xHis myc
T1 VNAR: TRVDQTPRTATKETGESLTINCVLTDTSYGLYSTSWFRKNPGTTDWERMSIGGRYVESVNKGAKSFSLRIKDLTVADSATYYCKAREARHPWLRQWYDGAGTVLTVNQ

B1: D3 humanised EL V2 with His6myc tag (VNAR)
VNAR: ASVNQSPSSLSASVGDRVTITCVLTDTSYGLYSTSWFRKNPGTTDWERMSIGGRYVESVNKRAKSFTLTISSLQPEDFATYYCKAQSGMAISTGSGHGYNWYDGAGTKVEIKQ
notes: VNAR; also called D3 EL V2
B2: D3 humanised EL V4 with His6myc tag (VNAR)
VNAR: B1 VNAR with F37Y, R38Q, K39Q, N40K
notes: VNAR; also called D3 EL V4
B3: D3 humanised ADV2 with His6myc tag (VNAR)
VNAR: B1 VNAR with A1T, S2R, N4D, V56S, R62G, F78S
notes: VNAR; also called D3 AD V2
B4: P3A1 G1 dimer (VNAR)
chain: TRVDQSPSSLSASVGDRVTITCVLTDTSYGLYSTYWYRKNPGSSNKEQISISGRYSESVNKGTKSFTLTISSLQPEDSATYYCRAREARHPWLRQWYDGAGTKVEIKGGGGSGGGGSGGGGSGGGGSGGGGSTRVDQSPSSLSASVGDRVTITCVLTDTSYGLYSTYWYRKNPGSSNKEQISISGRYSESVNKGTKSFTLTISSLQPEDSATYYCRAREARHPWLRQWYDGAGTKVEIKQASGAHHHHHHGAEFEQKLISEEDL
notes: humanised VNAR dimer
B5: ROR1 2A2 mAb (BioLegend) (antibody, V domains shown)
VH: QVQLQQSGAELVRPGASVTLSCKASGYTFSDYEMHWVIQTPVHGLEWIGAIDPETGGTAYNQKFKGKAILTADKSSSTAYMELRSLTSEDSAVYYCTGYYDYDSFTYWGQGTLVTVSA
VL: DIVMTQSQKIMSTTVGDRVSITCKASQNVDAAVAWYQQKPGQSPKLLIYSASNRYTGVPDRFTGSGSGTDFTLTISNMQSEDLADYFCQQYDIYPYTFGGGTKLEIK
B6: B1 G2 (humanised/grafted B1) with His6myc tag (VNAR)
VNAR: TRVDQSPSSLSASVGDRVTITCVLTGANYGLASTYWYRKNPGSSNQERISISGRYSESVNKRTMSFTLTISSLQPEDSATYYCRAYPWGAGAPWLVQWYDGAGTKVEIKQ
notes: VNAR
B7: B1 humanised V5 with His6myc tag (VNAR)
VNAR: B6 VNAR with T1A, R2S, L24V, S33A, R84K
notes: VNAR; also called B1V5
B8: B1 humanised V7 with His6myc tag (VNAR)
VNAR: B6 VNAR with T1A, R2S, L10A, V18L, L24V, S33A, R84K, V106L, I108V
notes: VNAR; also called B1V7
B9: B1 G1 (humanised/grafted B1) with His6myc tag (VNAR)
VNAR: B6 VNAR with Q46K, R48Q, R62G, M64K
notes: VNAR
B10: BA11 (humanised HSA-binding VNAR) (VNAR)
VNAR: TRVDQSPSSLSASVGDRVTITCVLTDTSYPLYSTYWYRKNPGSSNKEQISISGRYSESVNKGTKSFTLTISSLQPEDSATYYCRAMSTNIWTGDGAGTKVEIK
notes: VNAR
B11: BA11-C terminal cysteine-maleimide-peg-fluorescein (VNAR)
VNAR: B10 VNAR
modifications: C-terminal cysteine conjugated to maleimide-peg-fluorescein
notes: also called BA11-cys-mal-Fl
B12: BA11-C term thiol-maleimide-peg-fluorescein (VNAR)
VNAR: B10 VNAR
modifications: C-terminal thiol conjugated to maleimide-peg-fluorescein
notes: also called BA11-S-mal-Fl
B13: BA11-aminoxy (VNAR)
VNAR: B10 VNAR
modifications: C-terminal aminoxy (intein cleavage with dioxyamine)
B14: BA11 C-terminal cysteine derivative (VNAR)
VNAR: B10 VNAR
modifications: additional C-terminal cysteine (intein cleavage with cysteine)
notes: also called BA11-cys
B15: BA11-oxime-fluorescein (VNAR)
VNAR: B10 VNAR
modifications: C-terminal oxime-linked benzaldehyde-peg-fluorescein
B16: BA11 C-terminal thiol derivative (VNAR)
VNAR: B10 VNAR
modifications: C-terminal thiol (intein cleavage with cysteamine)
notes: also called BA11-SH
B17: P3A1 V1 dimer (VNAR)
chain: TRVDQSPSSLSASVGDRVTITCVLTDTSYGLYSTSWFRKNPGTTDWERMSIGGRYVESVNKGAKSFTLTISSLQPEDFATYYCKAREARHPWLRQWYDGAGTKVEIKGGGGSGGGGSGGGGSGGGGSGGGGSTRVDQSPSSLSASVGDRVTITCVLTDTSYGLYSTSWFRKNPGTTDWERMSIGGRYVESVNKGAKSFTLTISSLQPEDFATYYCKAREARHPWLRQWYDGAGTKVEIKQASGAHHHHHHGAEFEQKLISEEDL
B18: P3A1 G2 dimer (VNAR)
chain: B17 chain with S35Y, F37Y, V56S, F78S, K84R, S167Y, F169Y, V188S, F210S, K216R
notes: humanised VNAR dimer
B19: UC961 based mAb (antibody, human IgG1, kappa, V domains shown)
VH: QVQLQESGPGLVKPSQTLSLTCTVSGYAFTAYNIHWVRQAPGQGLEWMGSFDPYDGGSSYNQKFKDRLTISKDTSKNQVVLTMTNMDPVDTATYYCARGWYYFDYWGHGTLVTVSS
VL: DIVMTQTPLSLPVTPGEPASISCRASKSISKYLAWYQQKPGQAPRLLIYSGSTLQSGIPPRFSGSGTGTDFTLTINNIESEDAAYYFCQQHDESPYTFGEGTKVEIKR
notes: also called UC961-like; mAb based on UC-961
B20: D3 ADV1 dimer (VNAR)
chain: ASVNQSPSSLSASVGDRVTITCVLTDTSYGLYSTSWFRKNPGTTDWERMSIGGRYSESVNKGAKSFTLTISSLQPEDSATYYCKAQSGMAISTGSGHGYNWYDGAGTKVEIKGGGGSGGGGSGGGGSGGGGSGGGGSASVNQSPSSLSASVGDRVTITCVLTDTSYGLYSTSWFRKNPGTTDWERMSIGGRYSESVNKGAKSFTLTISSLQPEDSATYYCKAQSGMAISTGSGHGYNWYDGAGTKVEIKQASGAHHHHHHGAEFEQKLISEEDL
notes: Listing names it 'D3V1 dimer'; also called D3V1 dimer
B21: D3 ADV2 dimer (VNAR)
chain: B20 chain with A1T, S2R, N4D, A138T, S139R, N141D
notes: Listing names it 'D3V2 dimer'; also called D3V2 dimer
B22: Peptide 1 (peptide)
peptide: YMESLHMQGEIENQI
notes: linear ROR1 ECD peptide

Key:
[1] = target: T2, human ROR1-hFc fusion protein (extracellular domain) (human); assay: SPR, human ROR1 ECD-Fc on chip;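 note: SPR binding kinetics of VNAR and VNAR-Fc molecules run at a range of concentrations over immobilised target, rate and affinity constants fitted with QDat software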
T2 construct: Whole entry 'human ROR1-Fc (CHO)'; also called hROR1; huROR1-Fc
T2 sequence (chain, as listed by the source limits assumed): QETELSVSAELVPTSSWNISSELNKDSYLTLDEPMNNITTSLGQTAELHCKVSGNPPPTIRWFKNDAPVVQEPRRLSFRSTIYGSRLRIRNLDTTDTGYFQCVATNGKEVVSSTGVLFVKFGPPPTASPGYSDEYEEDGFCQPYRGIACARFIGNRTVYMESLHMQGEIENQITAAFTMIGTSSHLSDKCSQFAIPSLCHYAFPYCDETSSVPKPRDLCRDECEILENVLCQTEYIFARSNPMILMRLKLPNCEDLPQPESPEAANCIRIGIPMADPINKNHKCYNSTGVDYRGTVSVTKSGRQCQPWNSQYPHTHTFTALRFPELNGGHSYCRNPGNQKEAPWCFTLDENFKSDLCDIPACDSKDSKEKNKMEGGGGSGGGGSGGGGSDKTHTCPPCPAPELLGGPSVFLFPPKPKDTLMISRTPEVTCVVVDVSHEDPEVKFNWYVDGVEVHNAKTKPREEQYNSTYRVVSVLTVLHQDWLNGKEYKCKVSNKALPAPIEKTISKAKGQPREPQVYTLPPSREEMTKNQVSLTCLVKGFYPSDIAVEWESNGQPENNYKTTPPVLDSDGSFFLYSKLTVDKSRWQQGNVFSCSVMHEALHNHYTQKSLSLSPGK
Experimental: Binding kinetics were determined using a Pioneer Surface Plasmon Resonance (SPR) instrument (SensiQ/Pall ForteBio). […] VNARs and VNAR-Fc molecules were tested at various concentrations and the Ka (M⁻¹s⁻¹), Kd (s⁻¹) and KD (nM) values were determined using QDat software (SensiQ/Pall ForteBio).
Thermal stability assays used Applied Biosystems StepOne Real Time PCR system with the Protein Thermal Shift™ dye kit (Thermo). The assay mix was set up so that the protein was at a final concentration of 20 OA in 20 μL. 5 μL of Thermal Shift™ buffer was added alongside 2.5 uL 8× Thermal Shift™ Dye. Assays were run using the StepOne software and data analysed using Protein Thermal Shift™ software. All data are from first derivative analysis.

[2] = target: T3, recombinant human ROR1 (hROR1), construct not stated (human, UniProt Q01973 30-403, limits assumed); assay: SPR, hROR1 on chip
T3 sequence (Q01973 30-403 limits assumed): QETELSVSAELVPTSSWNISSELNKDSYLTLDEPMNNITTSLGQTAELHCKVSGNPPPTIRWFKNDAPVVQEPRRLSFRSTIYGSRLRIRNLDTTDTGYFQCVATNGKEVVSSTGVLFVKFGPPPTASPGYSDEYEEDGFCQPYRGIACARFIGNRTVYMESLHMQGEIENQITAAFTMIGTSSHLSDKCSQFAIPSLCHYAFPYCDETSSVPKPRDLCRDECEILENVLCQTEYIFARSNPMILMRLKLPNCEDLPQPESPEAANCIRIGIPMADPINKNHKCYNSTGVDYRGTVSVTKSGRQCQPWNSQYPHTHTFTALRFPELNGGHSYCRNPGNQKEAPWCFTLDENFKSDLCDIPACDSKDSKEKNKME

[3] = target: T3, recombinant human ROR1 (hROR1), …; assay: SPR, hROR1 on chip; remark: listed apart in the source
Experimental: (§1) Competition of binding studies were completed using SPR. […] FC2 was used as the reference channel. […] Binding kinetics were determined using QDat software.

[4] = target: T3, recombinant human ROR1 (hROR1), …; assay: SPR, hROR1 on chip with competitor B1 pre-captured
Experimental: as §1

[5] = target: T3, recombinant human ROR1 (hROR1), …; assay: SPR, hROR1 on chip with competitor P3A1 dimer pre-captured
Experimental: as §1

human serum albumin [6] = target: T4, human serum albumin (human, UniProt P02768 25-609); assay: SPR, albumin on chip, pH 5.5;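 note: albumins amine-coupled onto carboxyl SPR chips, with each analyte also run over a hen egg lysozyme surface as negative control, Kd derived from binding kinetics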
T4 construct: also called HSA
Experimental: (§2) Binding kinetics were determined using SPR. The serum albumins or negative control protein were immobilised to COOH₂ chips by amine coupling using optimised buffer conditions as follows: —Human serum albumin (HSA) and mouse serum albumin (MSA) were immobilised in sodium acetate pH5 buffer. Rat serum albumin (RSA) and cynomolgous serum albumin (CSA) in sodium acetate pH 4.5 buffer and the negative control hen egg lysozyme (HEL) protein was immobilised in sodium acetate pH 5.5 buffer.
(§3) For each analyte test experiment, binding to the chosen serum albumin protein was assayed alongside the negative control protein (HEL).

rat serum albumin [7] = target: T5, rat serum albumin (rat, UniProt P02770 25-608); assay: SPR, albumin on chip, pH 5.5;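 note: albumins amine-coupled onto carboxyl SPR chips, with each analyte also run over a hen egg lysozyme surface as negative control, Kd derived from binding kinetics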
T5 construct: also called RSA
T5 sequence (P02770 25-608 limits assumed): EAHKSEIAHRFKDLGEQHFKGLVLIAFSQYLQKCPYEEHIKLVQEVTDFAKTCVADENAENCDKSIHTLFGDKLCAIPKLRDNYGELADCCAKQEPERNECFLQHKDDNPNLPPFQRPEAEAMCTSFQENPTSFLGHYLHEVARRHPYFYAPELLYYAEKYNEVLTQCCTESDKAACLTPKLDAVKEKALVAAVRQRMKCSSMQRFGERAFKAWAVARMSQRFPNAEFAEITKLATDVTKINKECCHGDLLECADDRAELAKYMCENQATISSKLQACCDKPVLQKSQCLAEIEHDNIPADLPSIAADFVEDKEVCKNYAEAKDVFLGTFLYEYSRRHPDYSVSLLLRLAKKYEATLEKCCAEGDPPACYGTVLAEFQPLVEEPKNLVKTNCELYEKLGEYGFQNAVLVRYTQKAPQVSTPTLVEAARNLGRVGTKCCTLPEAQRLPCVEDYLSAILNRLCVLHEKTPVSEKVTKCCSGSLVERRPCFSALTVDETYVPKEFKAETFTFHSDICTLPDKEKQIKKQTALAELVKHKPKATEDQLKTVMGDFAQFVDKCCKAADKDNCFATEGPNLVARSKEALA
Experimental: as §2, §3

mouse serum albumin [8] = target: T6, mouse serum albumin (mouse, UniProt P07724 25-608); assay: SPR, albumin on chip, pH 5.5;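 note: albumins amine-coupled onto carboxyl SPR chips, with each analyte also run over a hen egg lysozyme surface as negative control, Kd derived from binding kinetics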
T6 construct: also called MSA
T6 sequence (P07724 25-608 limits assumed): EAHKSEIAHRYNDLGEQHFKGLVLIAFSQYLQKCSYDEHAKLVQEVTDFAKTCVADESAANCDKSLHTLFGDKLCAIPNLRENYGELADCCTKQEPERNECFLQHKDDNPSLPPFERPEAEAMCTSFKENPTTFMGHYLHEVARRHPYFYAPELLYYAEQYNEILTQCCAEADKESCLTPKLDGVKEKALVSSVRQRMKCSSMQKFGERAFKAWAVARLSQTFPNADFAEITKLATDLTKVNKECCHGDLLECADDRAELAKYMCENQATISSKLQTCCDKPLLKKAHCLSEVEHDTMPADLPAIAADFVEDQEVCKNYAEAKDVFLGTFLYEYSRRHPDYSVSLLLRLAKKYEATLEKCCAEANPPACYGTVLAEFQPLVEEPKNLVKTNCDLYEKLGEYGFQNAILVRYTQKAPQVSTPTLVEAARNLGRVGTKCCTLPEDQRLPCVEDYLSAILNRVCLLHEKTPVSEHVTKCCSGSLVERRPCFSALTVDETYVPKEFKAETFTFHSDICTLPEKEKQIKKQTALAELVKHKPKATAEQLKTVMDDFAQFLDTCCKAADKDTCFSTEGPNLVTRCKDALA
Experimental: as §2, §3

[9] = target: T7, cynomolgous serum albumin (cynomolgous, UniProt A2V9Z4 25-608); assay: SPR, albumin on chip, pH 5.5;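 note: albumins amine-coupled onto carboxyl SPR chips, with each analyte also run over a hen egg lysozyme surface as negative control, Kd derived from binding kinetics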
T7 construct: also called CSA; Cyano
T7 sequence (A2V9Z4 25-608 limits assumed): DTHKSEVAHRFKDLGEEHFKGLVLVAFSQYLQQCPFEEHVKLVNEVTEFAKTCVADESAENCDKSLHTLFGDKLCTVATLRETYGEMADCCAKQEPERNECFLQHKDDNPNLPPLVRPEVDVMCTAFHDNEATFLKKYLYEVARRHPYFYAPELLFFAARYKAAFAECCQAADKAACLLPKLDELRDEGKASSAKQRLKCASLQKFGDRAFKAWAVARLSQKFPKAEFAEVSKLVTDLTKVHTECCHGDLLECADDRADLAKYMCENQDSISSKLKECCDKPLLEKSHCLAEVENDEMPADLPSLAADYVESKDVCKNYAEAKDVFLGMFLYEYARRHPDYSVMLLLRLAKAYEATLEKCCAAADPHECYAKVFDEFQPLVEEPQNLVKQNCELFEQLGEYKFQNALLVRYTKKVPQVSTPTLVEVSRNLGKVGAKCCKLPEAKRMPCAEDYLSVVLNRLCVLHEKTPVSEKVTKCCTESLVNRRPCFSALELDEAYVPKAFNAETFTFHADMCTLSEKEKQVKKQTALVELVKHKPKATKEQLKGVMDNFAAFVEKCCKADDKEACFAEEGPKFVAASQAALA
Experimental: as §2, §3

human serum albumin [10] = target: T4, human serum albumin; assay: SPR, albumin on chip, pH 7.4;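 note: Human, mouse, rat and cynomolgus serum albumins amine-coupled to carboxyl sensor chips, with a hen egg lysozyme surface measured in parallel as negative control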
Experimental: as §2, §3

rat serum albumin [11] = target: T5, rat serum albumin; assay: SPR, albumin on chip, pH 7.4;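 note: Human, mouse, rat and cynomolgus serum albumins amine-coupled to carboxyl sensor chips, with a hen egg lysozyme surface measured in parallel as negative control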
Experimental: as §2, §3

mouse serum albumin [12] = target: T6, mouse serum albumin; assay: SPR, albumin on chip, pH 7.4;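 note: Human, mouse, rat and cynomolgus serum albumins amine-coupled to carboxyl sensor chips, with a hen egg lysozyme surface measured in parallel as negative control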
Experimental: as §2, §3

[13] = target: T7, cynomolgous serum albumin; assay: SPR, albumin on chip, pH 7.4;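 note: Human, mouse, rat and cynomolgus serum albumins amine-coupled to carboxyl sensor chips, with a hen egg lysozyme surface measured in parallel as negative control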
Experimental: as §2, §3

[14] = target: T8, B1 VNAR with C-terminal His6Myc tag; assay: competition ELISA: B1 pre-incubated with peptide, residual binding to coated huROR1-Fc
T8 construct: VNAR, E. coli; also called B1 his myc; B1HisMyc monomer
Experimental: (§4) In brief, ELISA method as follows. Wells coated with 100 ng antigen and incubated, covered, at room temperature for 2 hr. Plates washed 3×400 ul per well with PBST (PBS+0.05% Tween 20 (v/v)), then blocked with 4% skimmed milk powder (w/v) in PBST for 1 hour at 37° C. Plates washed as before plus additional wash in PBS alone. Binding proteins were diluted in 4% milk PBST and incubated overnight at 4° C. Plates washed 3× with PBST, 3×PBS and binding detected using appropriate secondary detection antibody in 4% milk PBST, room temperature 1 hour. […] Rabbit anti-Mouse IgG H&L, HRP (Abcam #ab97046) [0360] Mouse anti-polyHis, HRP (Sigma #A7058)
(§5) Competition assays were conducted as described in the methods with all four peptides reconstituted in PBS.

D3 his myc = target: T9, D3 his myc; assay: competition ELISA: D3 pre-incubated with peptide, residual binding to coated huROR1-Fc
T9 construct: VNAR; made in E. coli and in HEK293 (expression system under assay); also called D3 WT

P3A1 his myc = target: T1, P3A1 his myc; assay: competition ELISA: P3A1 pre-incubated with peptide, residual binding to coated huROR1-Fc
Experimental: as §4, §5

D3-[G4S]5-D3 his myc = target: T10, D3-[G4S]5-D3 his myc; assay: competition ELISA: D3-D3 pre-incubated with peptide, residual binding to coated huROR1-Fc
T10 construct: VNAR homodimer by genetic fusion; also called D3-D3; D3 dimer

| Binder | Kd [1] [nM] | koff [1] [s⁻¹] | kon [1] [M⁻¹ s⁻¹] | Kd (mouse serum albumin [8]) [nM] | Kd (human serum albumin [10]) [nM] | Kd (rat serum albumin [11]) [nM] | Kd [13] [nM] | further results |
| --- | --- | --- | --- | --- | --- | --- | --- | --- |
| B1 | 18.9 | ~0.0163 | 1.85e+06 | – | – | – | – | – |
| B2 | 58.5 | ~0.0545 | 1.38e+06 | – | – | – | – | – |
| B3 | 51.6 | 0.00236 | 45800 | – | – | – | – | – |
| B4 | 0.43 | 0.00147 | 4.3e+06 | – | – | – | – | – |
| B5 | – | – | – | – | – | – | – | Kd [2]: 0.21 nM; koff [2]: 0.000211 s⁻¹; kon [2]: 979000 M⁻¹ s⁻¹; Kd [3]: 0.233 nM; koff [3]: 0.000342 s⁻¹; kon [3]: 1.47e+06 M⁻¹ s⁻¹; Kd [4]: 0.101 nM; koff [4]: 8.47e-05 s⁻¹; kon [4]: 835000 M⁻¹ s⁻¹; Kd [5]: 0.231 nM; koff [5]: 0.000322 s⁻¹; kon [5]: 1.39e+06 M⁻¹ s⁻¹ |
| B6 | 45.9 | 0.0079 | 185000 | – | – | – | – | – |
| B7 | 0.74 | 3.85e-05 | 52000 | – | – | – | – | – |
| B8 | 0.77 | 5.54e-05 | 77400 | – | – | – | – | – |
| B9 | 82.8 | 0.0162 | 220000 | – | – | – | – | – |
| B10 | – | – | – | 4.8 | 0.636 | 2.97 | 3.36 | Kd (human serum albumin [6]): 0.91 nM; Kd (rat serum albumin [7]): 4.39 nM; Kd [9]: 1.11 nM; Kd (mouse serum albumin [12]): 1.9 nM |
| B11 | – | – | – | 13.6 | 1.1 | 4.78 | 3.68 | Kd (human serum albumin [6]): 3.16 nM; Kd (rat serum albumin [7]): 7.24 nM; Kd [9]: 8.21 nM; Kd (mouse serum albumin [12]): 5.06 nM |
| B12 | – | – | – | 10.6 | 1.42 | 5.3 | 2.3 | Kd (human serum albumin [6]): 1.91 nM; Kd (rat serum albumin [7]): 7.92 nM; Kd [9]: 7.01 nM; Kd (mouse serum albumin [12]): 5 nM |
| B13 | – | – | – | 21.2 | 1.12 | 10.8 | 7.97 | Kd (mouse serum albumin [12]): 8.77 nM |
| B14 | – | – | – | 3.77 | 0.756 | 3.37 | 2.1 | Kd (human serum albumin [6]): 1.96 nM; Kd (rat serum albumin [7]): 3.21 nM |
| B15 | – | – | – | 7.44 | 0.677 | 5.72 | 1.75 | Kd (human serum albumin [6]): 1.3 nM; Kd (rat serum albumin [7]): 5.93 nM; Kd [9]: 5.54 nM; Kd (mouse serum albumin [12]): 4.24 nM |
| B16 | – | – | – | 11.1 | 0.774 | 7.67 | 3.41 | Kd (human serum albumin [6]): 2.23 nM; Kd (rat serum albumin [7]): 12.1 nM; Kd [9]: 6.74 nM; Kd (mouse serum albumin [12]): 4.76 nM |
| B17 | 0.18 | 0.000846 | 4.78e+06 | – | – | – | – | – |
| B18 | 0.77 | 0.00119 | 1.88e+06 | – | – | – | – | – |
| B19 | – | – | – | – | – | – | – | Kd [3]: 0.078 nM; koff [3]: 0.000451 s⁻¹; kon [3]: 5.77e+06 M⁻¹ s⁻¹; Kd [5]: 0.081 nM; koff [5]: 0.000444 s⁻¹; kon [5]: 5.48e+06 M⁻¹ s⁻¹ |
| B20 | 8.92 | 0.00567 | 636000 | – | – | – | – | – |
| B21 | 26.2 | 0.016 | 609000 | – | – | – | – | – |
| B22 | – | – | – | – | – | – | – | binding result [14]: no binding (tested: 10 uM); binding result (D3 his myc): no binding; binding result (P3A1 his myc): no binding (tested: about 500 uM as the axis is labelled); binding result (D3-[G4S]5-D3 his myc): no binding |
